Assay [1] concerns the target T1, CA125 (Homo sapiens, UniProt Q8WXI7).
T1 construct: human ovarian cancer cell lines OVCAR-3 (high expresser of CA125); endogenous in cells; host or cells: NIH:OVCAR-3
Description: Co-immunoprecipitation of scFvs with anti-CA125 MAbs from transiently transfected NIH:OVCAR-3 cells. To be noted: transient transfection in NIH:OVCAR-3. The format is binding. The source says:
C) Immunoprecipitation and co-immunoprecipitation of Golgi- and ER-targeted OC125-3.11 scFv from transient transfection of pSTCF.GOLGI-OC125-3.11 and pSTCF.KDEL-OC125-3.11 in NIH:OVCAR-3 human ovarian cancer cells using anti-c-myc, anti-CA125 Mabs OC125 and VK-8, western blot probed with anti-c-myc 9E10 antibody.
D) Immunoprecipitation and co-immunoprecipitation of Golgi- and ER-targeted VK-8-1.9 scFv from transient transfection of pSTCF-GOLGI-VK8-1.9 and pSTCF.KDEL-VK8-1.9 in NIH:OVCAR-3 human ovarian cancer cells using anti-c-myc, anti-CA125 Mabs OC125 and VK-8, Western blot probed with anti-c-myc 9E10 antibody.
E) Immunoprecipitation and co-immunoprecipitation of ER-targeted VK-8-4.5 scFv from transient transfection of pSTCF.KDEL-VK8-4.5 in NIH:OVCAR-3 human ovarian cancer cells using anti-c-myc, anti-CA125 Mabs OC125 and VK-8, western blot prober with anti-c-myc 9E10 antibody. […]
Immunoprecipitation—NIH-OVCAR-3 cells were transiently transfected with the various scFv constructs using commercially available FuGene 6 transfection agent using the manufacturer's instruction. […] Protein concentration was measured by the Bradford method using the Bio-Rad protein assay according to the instruction provided by the manufacturer. […] Agarose or sepharose beads were pelleted and supernatants were analyzed by immunoblots for the presence of the various scFvs.

A further assay concerns purified human CA125. Description: CA125 binding analysis by ELISA (periplasmic extracts). As to conditions: commercially purified human CA125. An excerpt:
A) CA125 binding activity of anti-CA125 OC125, VK-8-1.9 and VK-8-4.5 scFvs present in periplasmic extracts of bacteria as well as anti-Bcl2 4D7 scFv compared to parental Mabs OC125 and VK-8 and to PBS and periplasmic extract from bacteria, uninduced, IPTG-induced and controls.
The inventors constructed single-chain antibody libraries derived from the OC125 and VK-8 hybridoma cell lines specific for CA125. The two scFv libraries were screened for CA125 binding activity by ELISA using commercially purified human CA125. […] The inventors hypothesized that if those scFvs (CA125 binders) once expressed intracellularly were localized to and retained within the ER or the Golgi then CA125 antigen would be entrapped during synthesis and thus be unable to localize at cell surface and interact with other intracellular and/or extracellular proteins to achieve its function(s). The scFvs were targeted to the ER or trans-median Golgi by sequence fusion with an Igκ secretion leader and a KDEL signal or fusion with the N-terminal 81 amino acids of human beta 1,4-galactosyltransferase, a protein resident of the trans-medial Golgi (47-49) in addition ot a c-myc tag at the C-terminus.
Binding analysis by ELISA—Periplasmic extracts were prepared as previously described (29). […] The OD was read at 450 ηm in an ELISA plate reader.
Background: In an ELISA, binding on a coated surface is turned into a signal by an enzyme label.

Assay [2] has as its target T1, CA125. Briefly: Immunofluorescence of CA125 at the cell surface, transient transfection of OVCAR-3 cells. The format is cell-based. To be noted: transiently transfected OVCAR-3 cells. The source says:
B) NIH:OVCAR-3 cellswere transiently transfected with pSTCF.Golgi-OC125-3.11 or pSTCF.KDEL-VK-8-1.9 constructs and 48 hrs later the cells were fixed in ice-cold methanol. Expression of scFvs and CA125 was detected using the anti-c-myc A14 polyclonal antibody and anti-CA125 M11 monoclonal antibody. Oregon green anti-rabbit and Texas red anti-mouse secondary antibodies were used.
Anti-CA125 scFvs act therefore act as potent negative modulators of CA125.
Immunofluorescence—Transiently transfected NIH-OVCAR-3 cells or stable NIH:OVCAR-3 clones expressing the various anti-CA125 scFvs were grown on glass slide until a 50% confluence was reached. […] Slides were next washed 3 times in cold PBS, incubated for 30 min at room temperature with anti-mouse or anti-rabbit secondary antibodies coupled to Texas Red or Oregon green (1:1000), washed with PBS and mounted for visualization by fluorescence microscopy. Expression of the various anti-CA125 scFvs and CA125 was detected using anti-c-myc antibody (9E10, 1:500) and OC125 antibody (1:500). Localization of the scFvs was determined by comparing their pattern of expression with that of calreticulin and ADP-ribosylation factor for ER and Golgi localization using anti-calreticulin antibody (1:10000) anti-calreticulin and anti-ADP-ribosylation factor (1:400).

B1: OC125-3.11: anti-CA125 single-chain antibody derived from the OC 125 monoclonal antibody, fragment coded by SEQ ID NO 2 (protein)
chain: QVQLQQSGTVLARPGASVKMSLQASGYTFTSYWMHWVKQRPGQGLEWIGAIYPGNSDTSYNQKFKGKAKLTAVTSTSTAYMELSSLTNEDSAVYYCTRSYDWYFDVWGQGTTVTVSSGGGGSGGGGSGGGGSDIELTQSPAILSVSPGERVSFSCRASQSIGTDMHWYQQRTNGSPRLLIKYASESISGIPSRFSGSGSGTDFTLSINSVESEDIADYYCQQSYSWPLTFGAGTKLEIK
modifications: Golgi targeting; VH-linker-VL portion of OC125-3.11
For B1, in the assay with CA125 [1], the “co-immunoprecipitation with CA125 using anti-CA125 OC125 and VK-8 MAbs” value is “co-immunoprecipitated”. Also, the “CA125 binding activity by ELISA” value in the assay with purified human CA125 is “bound to CA125”. Also, the “expression of CA125 at the cell surface” value with CA125 [2] is reported as “lost expression of CA125 at the cell surface”.

For the origin of these results see patent US20060134116A1, “Ca 125 tumor antigen function and uses thereof” (Universite De Sherbrooke, priority 2002, published 2006).
